According to US20240116985A1, “STAPLED PEPTIDES AND METHODS THEREOF” (priority 2020, published 2024):
Starred links: 1 amine or outer side, 2 acyl side, 3 side chain; linkers in the order of their positions; H or OH if unused. Positions of bridges follow the written chain, without caps; N, C: chain ends. Non-standard residues stand in square brackets, D forms with d. Primed or numbered codes have the meaning given here. PyrS2″ = (S)-3-amino-1-((pent-4-en-1-yloxy)carbonyl)pyrrolidine-3-carboxylic acid (stapling residue), C=CCCCOC(=O)N1CC[C@@](N[*:1])(C(=O)[*:2])C1; B5(4) = 2,2-bis(4-pentenyl)glycine = 2-amino-2-(pent-4-en-1-yl)hept-6-enoic acid (stitching residue), C=CCCCC(CCCC=C)(N[*:1])C(=O)[*:2]; B5(5) = 2,2-bis(4-pentenyl)glycine, 2-amino-2-(pent-4-en-1-yl)hept-6-enoic acid (stitching residue), C=CCCCC(CCCC=C)(N[*:1])C(=O)[*:2]; PyrS2 = (S)-3-amino-1-((pent-4-en-1-yloxy)carbonyl)pyrrolidine-3-carboxylic acid, C=CCCCOC(=O)N1CC[C@@](N[*:1])(C(=O)[*:2])C1; B5(3) = 2,2-bis(4-pentenyl)glycine (stitching residue), C=CCCCC(CCCC=C)(N[*:1])C(=O)[*:2]; RbGlu = 3-aminopentanedioic acid, R/S prefix not explained; SbGlu = 3-aminopentanedioic acid, R/S prefix not explained; Phe(2-Cl) = N[C@@H](Cc1ccccc1Cl)C(=O)O; Bta = N[C@@H](Cc1csc2ccccc12)C(=O)O; αAllylPro = C=CC[C@@]1(C(=O)O)CCCN1; tBuAla = CC(C)(C)C[C@H](N)C(=O)O; 3Thi = N[C@@H](Cc1ccsc1)C(=O)O; Cha = N[C@@H](CC1CCCCC1)C(=O)O; S8 = C=CCCCCCC[C@](C)(N)C(=O)O; Thr(ol) = C[C@@H](O)[C@H](N)CO; Phe(ol) = N[C@H](CO)Cc1ccccc1; Nle = CCCC[C@H](N)C(=O)O

B1: I-1891 (peptide)
peptide: Ac-[αAllylPro]D[tBuAla][B5(5)]DRAAFN[PyrS2][3Thi][Bta]Q-NH2
modifications: staple 1-4, 4-11; not fully specified; printed as Ac-PL3-Asp-Npg-B5-Asp-Arg-Ala-Ala-Phe-Asn-PyrS2-3Thi-BztA-Gln-NH2
B2: I-1309 (peptide)
peptide: Ac-[αAllylPro]D[tBuAla][B5(4)]DTAAFT[PyrS2″][Phe(2-Cl)][Bta][Thr(ol)]
modifications: staple 1-4, 4-11
B3: I-1310 (peptide)
peptide: Ac-[αAllylPro]D[Cha][B5(4)]DTAAFT[PyrS2″][Phe(2-Cl)][Bta][Thr(ol)]
modifications: staple 1-4, 4-11
B4: I-1307 (peptide)
peptide: Ac-[αAllylPro]D[Cha][B5(4)]DDAAFL[PyrS2″][Phe(2-Cl)][Bta][Thr(ol)]
modifications: staple 1-4, 4-11
B5: I-1311 (peptide)
peptide: Ac-[αAllylPro]D[tBuAla][B5(4)]DDAAFF[PyrS2″][Phe(2-Cl)][Bta][Thr(ol)]
modifications: staple 1-4, 4-11
B6: I-1106 (peptide)
peptide: Ac-[αAllylPro]D[tBuAla][B5(5)]DDAAFS[PyrS2″][Cha][Bta]S-NH2
modifications: staple 1-4, 4-11
B7: I-1099 (peptide)
peptide: Ac-[αAllylPro]D[tBuAla][B5(5)]DDAAFS[PyrS2″]F[Bta]S-NH2
modifications: staple 1-4, 4-11
B8: I-1083 (peptide)
peptide: Ac-[αAllylPro]D[tBuAla][B5(4)]DDAAFN[PyrS2″][Phe(2-Cl)][Bta][Phe(ol)]
modifications: staple 1-4, 4-11
B9: I-1105 (peptide)
peptide: Ac-[αAllylPro]D[tBuAla][B5(5)]DDAA[Cha]S[PyrS2″]F[Bta]S-NH2
modifications: staple 1-4, 4-11
B10: I-676 (peptide)
peptide: Ac-[αAllylPro]DI[B5(4)][SbGlu]EAAFQ[S8]F[Bta]Q-NH2
modifications: staple 1-4, 4-11
B11: I-667 (peptide)
peptide: Ac-[αAllylPro]DI[B5(4)]DEA[Nle]FQ[S8]F[Bta]Q-NH2
modifications: staple 1-4, 4-11
B12: I-675 (peptide)
peptide: Ac-[αAllylPro]DI[B5(4)][RbGlu]EAAFQ[S8]F[Bta]Q-NH2
modifications: staple 1-4, 4-11
B13: I-672 (peptide)
peptide: Ac-[αAllylPro][SbGlu]I[B5(4)]DEAAFQ[S8]F[Bta]Q-NH2
modifications: staple 1-4, 4-11

Each binder was assayed against full-length beta-Catenin (Uniprot ID P35222) (Homo sapiens (Human)) (UniProt P35222) (assay: fluorescence polarization competition; peptide titrated against 5FAM-TCF4(10-53) bound to full-length beta-catenin).
Target sequence in this assay (P35222 whole entry, one chain of several): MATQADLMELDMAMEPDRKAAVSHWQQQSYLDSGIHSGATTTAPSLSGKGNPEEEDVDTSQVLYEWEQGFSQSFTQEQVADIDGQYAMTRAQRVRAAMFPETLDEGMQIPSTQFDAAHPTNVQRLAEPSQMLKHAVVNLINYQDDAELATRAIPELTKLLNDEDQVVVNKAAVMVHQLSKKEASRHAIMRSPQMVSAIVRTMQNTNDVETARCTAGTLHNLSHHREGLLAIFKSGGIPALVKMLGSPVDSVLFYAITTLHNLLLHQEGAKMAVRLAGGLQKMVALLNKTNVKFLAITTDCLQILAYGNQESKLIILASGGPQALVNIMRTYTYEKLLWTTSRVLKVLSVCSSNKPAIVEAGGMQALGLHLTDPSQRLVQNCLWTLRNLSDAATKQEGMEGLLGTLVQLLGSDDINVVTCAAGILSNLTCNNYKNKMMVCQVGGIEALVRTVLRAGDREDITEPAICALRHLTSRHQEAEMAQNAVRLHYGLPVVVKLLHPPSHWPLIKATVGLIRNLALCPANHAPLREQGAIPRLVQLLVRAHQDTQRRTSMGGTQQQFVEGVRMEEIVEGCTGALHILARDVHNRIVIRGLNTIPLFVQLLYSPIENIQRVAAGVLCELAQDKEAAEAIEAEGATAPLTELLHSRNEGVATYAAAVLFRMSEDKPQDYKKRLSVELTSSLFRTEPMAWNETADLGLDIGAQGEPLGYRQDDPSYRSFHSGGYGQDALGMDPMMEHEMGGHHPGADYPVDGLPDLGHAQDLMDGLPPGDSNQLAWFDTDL
Work on B1 yielded an IC50 of 40 nM.

What follows are binders tested against full-length beta-Catenin (Uniprot ID P35222) (Homo sapiens (Human)) (UniProt P35222) (assay: fluorescence polarization competition; full-length beta-catenin + 5FAM-TCF4 10-53 probe).
Target sequence in this assay (P35222 2-781 limits assumed): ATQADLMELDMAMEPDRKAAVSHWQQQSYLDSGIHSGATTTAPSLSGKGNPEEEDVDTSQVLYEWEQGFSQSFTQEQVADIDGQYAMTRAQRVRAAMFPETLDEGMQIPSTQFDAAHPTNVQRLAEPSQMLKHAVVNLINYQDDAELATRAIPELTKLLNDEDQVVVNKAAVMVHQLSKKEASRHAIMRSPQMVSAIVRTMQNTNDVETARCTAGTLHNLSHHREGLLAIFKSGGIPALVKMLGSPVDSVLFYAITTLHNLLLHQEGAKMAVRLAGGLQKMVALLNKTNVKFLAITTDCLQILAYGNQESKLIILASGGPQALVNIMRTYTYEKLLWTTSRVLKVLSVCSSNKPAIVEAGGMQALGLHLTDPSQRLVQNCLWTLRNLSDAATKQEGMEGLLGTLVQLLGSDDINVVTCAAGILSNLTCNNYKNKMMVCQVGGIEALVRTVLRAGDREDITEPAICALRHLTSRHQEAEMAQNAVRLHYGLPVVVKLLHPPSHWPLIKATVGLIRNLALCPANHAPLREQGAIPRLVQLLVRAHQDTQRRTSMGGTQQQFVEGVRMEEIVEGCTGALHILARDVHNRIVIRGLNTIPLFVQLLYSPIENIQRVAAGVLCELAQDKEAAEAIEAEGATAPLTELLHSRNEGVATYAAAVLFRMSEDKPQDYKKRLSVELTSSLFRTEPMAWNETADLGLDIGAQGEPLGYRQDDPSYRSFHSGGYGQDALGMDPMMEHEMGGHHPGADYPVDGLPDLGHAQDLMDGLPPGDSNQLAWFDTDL
B2 showed an IC50 of 59 nM. B3 gave an IC50 of 124 nM. For B4, the IC50 was 21 nM. B5 was tested, and the IC50 was 38 nM.

Each binder was assayed against Bcat-Halo (UniProt P35222) (assay: NanoBRET Abs IC50 in HEK293 cells; Bcat-Halo with TCF4-Luc as competitor).
Chain of Bcat-Halo (P35222 whole entry): as the sequence (P35222 whole entry, one chain of several) above
With B6 the IC50 was > 20000 nM. With B7 the IC50 was 9000 nM. For B8, the IC50 was 18800 nM. B9 was tested, and the IC50 was > 20000 nM.

What follows are binders tested against full-length beta-Catenin (Uniprot ID P35222) (Homo sapiens (Human)) (UniProt P35222) (assay: fluorescence polarization competition; full-length beta-catenin, competitor 5FAM-TCF4(10-53) probe).
With B2 the EC50 was 59 nM. Work on B3 yielded an EC50 of 124 nM. B10 gave an IC50 of 5000 nM. In the case of B11, the IC50 is reported as 585 nM. With B12 the IC50 was 4520 nM. B4 showed an EC50 of 21 nM. Work on B13 yielded an IC50 of 5000 nM. For B5, the EC50 was 38 nM.

The binders below were run against full-length beta-Catenin (Uniprot ID P35222) (Homo sapiens (Human)) (UniProt P35222) (assay: fluorescence polarization competition; peptide titrated against 10 nM full-length beta-catenin + 10 nM 5FAM-TCF4(10-53)).
Target sequence in this assay (P35222 2-781 limits assumed): as the sequence (P35222 2-781 limits assumed) above
Work on B8 yielded an IC50 of 8 nM.

Each binder was assayed against full-length beta-Catenin (Uniprot ID P35222) (Homo sapiens (Human)) (UniProt P35222) (assay: fluorescence polarization competition, full-length beta-catenin with 5FAM-TCF4(10-53) probe as competitor).
Target sequence in this assay (P35222 2-781 limits assumed): as above
Work on B10 yielded an EC50 of 5000 nM. B11 showed an EC50 of 585 nM. B12 gave an EC50 of 4520 nM. Work on B13 yielded an EC50 of 5000 nM.

The binders below were run against full-length beta-Catenin (Uniprot ID P35222) (Homo sapiens (Human)) (UniProt P35222) (assay: fluorescence polarization competition; full-length beta-catenin + 5FAM-TCF4(10-53) probe as competitor).
Target sequence in this assay (P35222 2-781 limits assumed): as above
In the case of B6, the EC50 is reported as 23 nM. Binder B7 has an EC50 of 9 nM. In the case of B8, the EC50 is reported as 8 nM. B9 showed an EC50 of 36 nM.

These binders were tested against full-length beta-Catenin (Uniprot ID P35222) (Homo sapiens (Human)) (UniProt P35222) (assay: fluorescence polarization competition; displacement of 5FAM-TCF4(10-53) from full-length beta-catenin).
Target sequence in this assay (P35222 whole entry, one chain of several): as the sequence (P35222 whole entry, one chain of several) above
Work on B6 yielded an IC50 of 23 nM. Binder B7 has an IC50 of 9 nM. In the case of B9, the IC50 is reported as 36 nM.
